The text below walks through data of patent US20190282663A1 (KEROS THERAPEUTICS, published 2019).

To fix the notation:
B1: ActRIIb/a variant (SEQ ID NO: 149) (receptor)
chain: GRGEAETRECIFYNANWEKDRTNQSGLEPCYGDQDKRRHCFASWKNSSGTIELVKQGCWLDDINCYDRQECVAKKDSPEVYFCCCEGNFCNERFTHLPEAGGPEVTYEPPPTAPT
notes: Engineered extracellular ActRIIb variant; also called extracellular ActRIIb variant; not shown: Carrier and linker
B2: BMP-9 (ligand, UniProt Q9UK05 320-429, looked up)
chain: SAGAGSHCQKTSLRVNFEDIGWDSWIIAPKEYEAYECKGGCFFPLADDVTPTKHAIVQTLVHLKFPTKVGKACCVPTKLSPISVLYKDDMGVPTLKYHYEGMSVAECGCR
notes: also called bone morphogenetic protein 9
B3: growth differentiation factor 11 (GDF11) (ligand, UniProt O95390 299-407, looked up)
chain: NLGLDCDEHSSESRCCRYPLTVDFEAFGWDWIIAPKRYKANYCSGQCEYMFMQKYPHTHLVQQANPRGSAGPCCTPTKMSPINMLYFNDKQQIIYGKIPGMVVDRCGCS
B4: ActRIIb (SEQ ID NO: 74) (receptor)
chain: GRGEAETRECIYYNANWELERTNQSGLERCEGEQDKRLHCYASWRNSSGTIELVKKGCWLDDFNCYDRQECVATEENPQVYFCCCEGNFCNERFTHLPEAGGPEVTYEPPPTAPT
notes: also called Human ActRIIb, extracellular portion; not shown: Carrier and linker
B5: ActRIIa/bmax2 variant (SEQ ID NO: 71) (receptor)
chain: GAILGRSETQECLFYNANWELERTNQTGVERCEGEKDKRLHCYATWRNISGSIEIVKKGCWLDDFNCYDRTDCVETEENPQVYFCCCEGNMCNEKFSYFPEMEVTQPTSNP
notes: not shown: Carrier and linker
B6: ActRIIa/bmax3 variant (SEQ ID NO: 72) (receptor)
chain: GAILGRSETQECLFYNANWELERTNQTGVERCEGEKDKRLHCYATWRNISGSIEIVKKGCWLDDFNCYDRTDCVETEENPQVYFCCCEGNMCNEKFSYFPEMEVTQPTSNPVTPK
notes: not shown: Carrier and linker
B7: ActRIIa/bΔ9 variant (SEQ ID NO: 58) (receptor)
chain: GAILGRSETQECLFYNANWELDRTNQTGVERCEGEKDKRLHCYATWRNISGSIEIVKKGCWLDDFNCYDRTDCVETKENPQVYFCCCEGNMCNEKFSYFPEMEVTQPTS
notes: Engineered extracellular ActRIIa variant; not shown: Fusion partner and its linker
B8: ActRIIa/bΔ9m2 variant (SEQ ID NO: 38) (receptor)
chain: B7 chain with F65I
notes: as for B7
B9: ActRIIa/bΔ9m3 variant (SEQ ID NO: 41) (receptor)
chain: B7 chain with Y43F
notes: as for B7
B10: ActRIIa/b variant (SEQ ID NO: 69) (receptor)
chain: B7 chain with D22E, K77E
notes: Engineered extracellular ActRIIa variant; not shown: Carrier and linker
B11: ActRIIa/bΔ9m4 variant (SEQ ID NO: 44) (receptor)
chain: B7 chain with R31P
notes: as for B10
B12: ActRIIa/bΔ9 min variant (SEQ ID NO: 6) (receptor)
chain: B7 chain with R31P, Y43F, R47K, F65I
notes: as for B7
B13: ActRIIa/b+ variant (SEQ ID NO: 150) (receptor)
chain: B7 chain with D22E, K57A, K77E
notes: not shown: Fusion partner and its linker
B14: ActRIIa/bmax1 variant (SEQ ID NO: 70) (receptor)
chain: B7 chain with F14Y, D22E, K36Q, K77E
notes: as for B10

Substitutions are numbered along the chain they refer to.

For the first experiment, the target named is T1, Activin B (UniProt P09529 293-407).
T1 sequence (looked up): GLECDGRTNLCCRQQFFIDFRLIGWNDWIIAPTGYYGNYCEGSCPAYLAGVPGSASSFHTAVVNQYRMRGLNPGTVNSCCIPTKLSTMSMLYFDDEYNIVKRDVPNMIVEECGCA
Nature of the experiment: SPR (Biacore 3000), receptor captured on chip by anti-mouse antibody, ligand in solution. (In general: Surface plasmon resonance follows binding to a sensor surface in real time, without labels.)
For the molecule B1, the binding result is “no binding”.

The next experiment addresses T2, Activin A (UniProt P08476 311-426).
T2 sequence (looked up): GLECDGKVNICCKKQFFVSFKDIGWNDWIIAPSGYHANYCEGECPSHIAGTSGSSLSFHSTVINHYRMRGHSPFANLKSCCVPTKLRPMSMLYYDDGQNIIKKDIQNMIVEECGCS
The description is as above.
With B1, the binding result is “no binding”.

Another experiment addresses B3. Described as above.
Take B1: the binding result is given as “no binding”.

The target of another experiment is B4. Nature of the experiment: SPR (Biacore 3000), receptor captured on chip, ligand in solution.
B2 returned a Kd of 0.278 nM.

The molecule B3 returned a Kd of 0.115 nM.

For the next experiment, the target named is T1, Activin B. The description is as above.
As to B4, the equilibrium dissociation constant (Kd) stood at 0.023 nM.

In turn, B5 gave a dissociation constant (Kd) of 0.039 nM.

Consider B6, for which the Kd worked out at 0.043 nM.

The molecule B7 registered a Kd of 0.0123 nM.

On to B8, for which the equilibrium dissociation constant (Kd) is 0.104 nM.

As for B9, the Kd worked out at 0.0725 nM.

B10: the Kd was found to be 0.103 nM.

B11 displayed a dissociation constant (Kd) of 0.254 nM.

For B12, the equilibrium dissociation constant (Kd) is 0.088 nM.

B13 had a Kd of 0.282 nM.

In turn, B14 showed a Kd of 0.097 nM.

The target of a further experiment is B2. The experiment is described as above.
For B5, the equilibrium dissociation constant (Kd) stood at 5 nM.

In turn, B6 displayed a dissociation constant Kd of 3.3 nM.

As to B7, the dissociation constant (Kd) is 10 nM.

B8: the Kd lay within 13 to 18 nM.

B9: the Kd worked out at 1.2 nM.

As for B10, binding was characterised by a dissociation constant (Kd) of 4 nM.

For B11, the Kd was 14 to 20 nM.

In turn, B12 displayed a dissociation constant Kd of 17 nM.

As for B13, the equilibrium dissociation constant (Kd) amounted to 26 nM.

Take B14: the equilibrium dissociation constant (Kd) is 5.6 nM.

The target of a further experiment is T2, Activin A. The description is as above.
For B4, the equilibrium dissociation constant (Kd) came to 0.063 nM.

In turn, B5 displayed a Kd of 0.135 nM.

Molecule B6 registered an equilibrium dissociation constant (Kd) of 0.089 nM.

In turn, B7 displayed a Kd of 0.213 nM.

Molecule B8 registered a Kd of 0.17 nM.

As for B9, the Kd is 0.071 nM.

In turn, B10 displayed a Kd of 0.542 nM.

In the case of B11, the Kd came to 0.375 nM.

For the molecule B12, the Kd came to 0.31 nM.

B13: the dissociation constant (Kd) stood at 0.242 nM.

With B14, the Kd worked out at 0.232 nM.

The target in a further experiment is B3. The description is as above.
B5 yielded an equilibrium dissociation constant (Kd) of 0.113 nM.

B6 showed a Kd of 0.214 nM.

Molecule B7 showed a Kd of 0.115 nM.

B8: the Kd turned out to be 0.222 nM.

With B9, the affinity, expressed as Kd, was 0.117 nM.

Consider B10, for which binding was characterised by a dissociation constant (Kd) of 0.186 nM.

With B11, binding was characterised by a dissociation constant (Kd) of 0.394 nM.

As for B12, the Kd was determined as 0.114 nM.

On to B14, for which the Kd amounted to 0.236 nM.

As a reminder, the Kd is the free concentration of one partner at which half of the binding sites on the other are occupied at equilibrium, for simple one-to-one binding. Low values mean a tighter complex, high ones a looser complex.
